From publication PMC6431553
Like-named read-outs stand apart in the source and are kept apart here.

Key:
[1] = molecular target: recombinant murine PrP 23–231 (murine) (UniProt P04925); assay: ELISA
[2] = molecular target: recombinant murine PrP 23–231 (murine) (UniProt P04925); assay: ELISA; remark: listed apart in the source

UniProt P04925, sequence (P04925 23-231): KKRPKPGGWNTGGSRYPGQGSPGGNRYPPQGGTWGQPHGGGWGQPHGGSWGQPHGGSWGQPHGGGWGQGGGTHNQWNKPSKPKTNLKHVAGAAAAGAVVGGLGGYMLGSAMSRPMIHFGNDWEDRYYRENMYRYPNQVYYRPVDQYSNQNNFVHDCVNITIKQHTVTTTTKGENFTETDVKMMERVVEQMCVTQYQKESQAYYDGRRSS

Question: How did the EC50 [1] turn out when Aβ1–42 fibrils (peptide) was run?
Answer: 1.73 µM

Question: “Aβ-derived diffusible ligands (ADDLs), a preparation of Aβ1–42 (peptide)” was tested. Which EC50 [1] did it give?
Answer: 0.234 µM

Question: And the EC50 [2]?
Answer: 0.113 µM
